Data on one molecule can be found in patent US20110256132A1 (published 2011).

What is called EC50 is the concentration that produces a half-maximal response. What is called IC50 is the concentration that inhibits the measured activity by half.

In experiment [1] the target is T1, artificial myostatin linear peptide 1 (not fully specified).
T1 construct: also called Peptide No 1
T1 peptide: H-DFGLDCDEHSTESRGSG-NH2
Put plainly: SRU BIND reader, peptides captured on streptavidin biosensor plate. How it is done:
(§1) Work was carried out on an SRU BIND reader (SRU Biosystems). A streptavidin biosensor plate was washed, a baseline reading taken, and biotinylated peptides captured onto the streptavidin coated biosensor plate. The plate was washed again, and a new baseline reading taken, antibody was then added and binding monitored.

Experiment [2] concerns the target T2, artificial myostatin linear peptide 25 (SMILES …).
T2 construct: also called Peptide No 25
T2 peptide: Biotin-SGSGFVFLQKYPHTHLVH-NH2
The description is as above. Here is the method: as §1

The target in experiment [3] is T3, artificial myostatin linear peptide 35 (cysteine pairing not given here).
T3 construct: also called Peptide No 35
T3 peptide: Biotin-SGSGSAGPCCTPTKMSPI-NH2
Described as above. How it is done: as §1

Experiment [4] concerns the target T4, artificial myostatin linear peptide 19 (cysteine pairing not given here).
T4 construct: also called Peptide No 19
T4 peptide: Biotin-SGSGRYKANYCSGECEFV-NH2
The description is as above. Here is the method: as §1

The target of experiment [5] is T5, artificial myostatin linear peptide 21 (cysteine pairing not given here).
T5 construct: also called Peptide No 21
T5 peptide: Biotin-SGSGNYCSGECEFVFLQK-NH2
Described as above. How it is done:
as §1

The target of experiment [6] is T6, artificial myostatin linear peptide 17 (SMILES …).
T6 construct: also called Peptide No 17
T6 peptide: Biotin-SGSGIAPKRYKANYCSGE-NH2
The experiment is described as above. Here is the method:
as §1

For experiment [7], the target named is T7, artificial myostatin linear peptide 3 (cysteine pairing not given here).
T7 construct: also called Peptide No 3
T7 peptide: Biotin-SGSGDCDEHSTESRCCRY-NH2
The description is as above. How it is done: as §1

In experiment [8] the target is T8, artificial myostatin linear peptide 15 (SMILES …).
T8 construct: also called Peptide No 15
T8 peptide: Biotin-SGSGWDWIIAPKRYKANY-NH2
The experiment is described as above. How it is done:
as §1

Experiment [9] deals with T9, artificial myostatin linear peptide 29 (SMILES …).
T9 construct: also called Peptide No 29
T9 peptide: Biotin-SGSGHTHLVHQANPRGSA-NH2
Described as above. Here is the method:
as §1

Experiment [10] concerns the target T10, artificial myostatin linear peptide 41 (SMILES …).
T10 construct: also called Peptide No 41
T10 peptide: Biotin-SGSGPINMLYFNGKEQII-NH2
The description is as above. Here is the method:
as §1

The target of experiment [11] is T11, artificial myostatin linear peptide 31 (cysteine pairing not given here).
T11 construct: also called Peptide No 31
T11 peptide: Biotin-SGSGVHQANPRGSAGPCC-NH2
The description is as above. Here is the method: as §1

Experiment [12] deals with T12, artificial myostatin linear peptide 7 (cysteine pairing not given here).
T12 construct: also called Peptide No 7
T12 peptide: Biotin-SGSGSRCCRYPLTVDFEA-NH2
The experiment is described as above. Here is the method: as §1

The target in experiment [13] is T13, artificial myostatin linear peptide 27 (SMILES …).
T13 construct: also called Peptide No 27
T13 peptide: Biotin-SGSGQKYPHTHLVHQANP-NH2
The experiment is described as above. Here is the method: as §1

Experiment [14] has as its target T14, artificial myostatin linear peptide 47 (SMILES …).
T14 construct: also called Peptide No 47
T14 peptide: Biotin-SGSGIIYGKIPAMVVDRC-NH2
The description is as above. Here is the method:
as §1

Experiment [15] has as its target T15, mature myostatin (recombinant, dimeric) (mouse polyprotein used for in-house …, UniProt O08689 268-376).
T15 construct: also called GDF-8; recombinant myostatin
T15 sequence: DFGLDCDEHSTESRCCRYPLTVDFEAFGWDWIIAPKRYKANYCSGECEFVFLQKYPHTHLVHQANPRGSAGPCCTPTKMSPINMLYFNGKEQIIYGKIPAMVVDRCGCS
In words: ELISA, plate-coated myostatin (R&D Systems), mean EC50. Here is the method:
10B3 and 10B3 chimera (10B3C) bound myostatin (R&D Systems, 788-G8-010/CF) in a sandwich ELISA. Plates were coated with myostatin at 10 ng/well and blocked with Block solution (PBS, 0.1% TWEEN and 1% BSA). Following washing (PBS, 0.1% TWEEN), antibody was incubated at 37° C. for 2 hours over a dilution series and plates washed again prior to incubation at 37° C. for 1 hour with anti-mouse HRP or anti-human HRP (Dako, P0161 & Sigma, A-8400, respectively). Plates were again washed and OPD substrate (Sigma, P9187) added until colourometric reaction occurred and the reaction stopped by the addition of H₂SO₄.
For orientation: In an ELISA, binding on a coated surface is turned into a signal by an enzyme label.

In experiment [16] the target is T16, human myostatin pro-peptide dimer (human, UniProt O14793 25-266).
T16 sequence: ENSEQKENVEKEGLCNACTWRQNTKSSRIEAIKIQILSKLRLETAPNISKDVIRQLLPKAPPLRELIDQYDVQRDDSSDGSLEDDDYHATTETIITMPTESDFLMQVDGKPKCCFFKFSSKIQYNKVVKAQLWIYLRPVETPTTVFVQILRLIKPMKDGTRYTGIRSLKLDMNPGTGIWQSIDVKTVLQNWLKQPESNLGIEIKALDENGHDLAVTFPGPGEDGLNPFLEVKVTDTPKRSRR
In words: ELISA, plate-coated antigen. Here is the method:
The myostatin antigens were coated onto wells of an EIA/RIA plate (Costar) at 100 ng/well at 4° C. overnight in PBS, prior to blocking (PBS, 3% BSA) for 30 minutes at room temperature. Plates were washed (PBS, 1% BSA and 0.1% Tween20), prior to the addition of a dilution series of 10B3 in wash buffer and incubation for 2 hours at room temperature. […] A final wash step preceded addition of TMB substrate and colorimetric change which was stopped with Sulphuric acid and plates read at 450 nm.

Experiment [17] deals with T15, mature myostatin (recombinant, dimeric). Put plainly: ELISA: inhibition of 2 nM biotinylated myostatin binding to plate-coated ActRIIb, mean IC50 (= 0.88 nM by paragraph 327). How it is done: Recombinant soluble ActRIIb (R&D Systems 339-RBB) was coated in wells of an ELISA plate at 1 μg/ml in carbonate buffer overnight at 4° C. Plates were blocked (see Block solution above at 2.3) and washed following standard ELISA protocols. In parallel, 2 nM biotinylated myostatin (in-house, as described in 1.1, biotinylated material) was pre-incubated with an antibody dilution series consisting of 10B3, 10B3C, and a negative control (IgG1 isotype control) for 2 hours at 37° C. The biotinylated myostatin:antibody reactions were then added to the ActRIIb coated plate for 1 hour at 37° C. Standard wash procedures were followed prior to addition of 1:1000 diluted streptavidin-HRP conjugate (Dako P0397) and a further 37° C. incubation for 1 hour. Plates were again washed and assayed at absorbance 490 nm following OPD substrate (Sigma) and acid stop solution treatment Inhibition curves and IC50 values for the inhibition of myostatin activity are shown in FIG. 5 and Table 8 respectively.

* marks the point of attachment. Biotin = O=C1N[C@H]2[C@H](CS[C@H]2CCCCC(=O)*)N1

B1: mouse monoclonal antibody 10B3 (antibody, V domains shown)
VH: EVQLQQSGPELVKPGASVKISCKASGYSFTGYFMHWVKQSHGNILDWIGNIYPYNGVSNYNQRFKAKATLTVDKSSSTAYMELRSLTSEDSAVYYCARRYYYGTGPADWYFDVWGTGTTVTVSS
VL: DIKMTQSPSSMYASLRERVTITCKASQDINSYLSWFQQKPGKSPKTLIYRANRLVDGVPSRFSGSGSGQDYSLTISSLEYEDMGIYYCLQCDEFPLTFGAGTKLELK
notes: Mouse IgG2a/kappa from hybridoma; also called 10B3 mouse parental; 10B3 parental
Turning to B1, the binding result in experiment [1], in [2], in [3], in experiment [4], in experiment [5] and in experiment [6] was “no binding” in each case. Besides, the binding result in experiment [7], in experiment [8], in experiment [9], in experiment [10], in experiment [11] and in experiment [12] was “no binding” throughout. Also, the binding result in experiment [13], in [14] and in experiment [16] was “no binding” throughout. Further, in experiment [15], the EC50 came to 0.069 µg/mL. Besides, the IC50 in experiment [17] turned out to be 0.132 µg/mL.
